Test results reported in patent US20080207501A1.

Assays:
Amylin RBA (rat) = Amylin RBA (rat) (UniProt P32214); assay: radioligand binding assay (displacement of radiolabeled amylin)
CGRP RBA = CGRP RBA (UniProt Q16602); assay: radioligand binding assay (displacement of radiolabeled CGRP)
[1] = target: calcitonin receptor of CHO cells; assay: cell-based or functional assay
[2] = target: T1, calcitonin receptor of T47D cells (UniProt P30988); assay: cell-based or functional assay
T1 sequence (looked up): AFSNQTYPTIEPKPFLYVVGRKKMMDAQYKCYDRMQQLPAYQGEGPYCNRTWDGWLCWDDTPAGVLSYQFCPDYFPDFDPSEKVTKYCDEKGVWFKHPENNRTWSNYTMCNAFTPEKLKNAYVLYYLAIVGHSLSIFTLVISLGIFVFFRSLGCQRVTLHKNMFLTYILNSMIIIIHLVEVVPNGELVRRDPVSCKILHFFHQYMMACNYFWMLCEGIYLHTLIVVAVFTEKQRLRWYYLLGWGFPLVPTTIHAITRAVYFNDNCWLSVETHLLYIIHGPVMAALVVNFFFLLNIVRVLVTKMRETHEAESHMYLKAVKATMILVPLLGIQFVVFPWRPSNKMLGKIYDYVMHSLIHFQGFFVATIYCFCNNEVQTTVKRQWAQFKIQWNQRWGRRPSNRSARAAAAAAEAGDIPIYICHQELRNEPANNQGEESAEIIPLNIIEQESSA

[3] = target: CGRP receptor (membranes prepared from SK-N-MC cells) (UniProt Q16602); assay: radioligand displacement, 125I-hCGRP, SK-N-MC cell membranes
[4] = target: calcitonin receptor (receptor binding assay); assay: rCalcitonin RBA, method not described

Chain of CGRP RBA (Q16602 23-461, chain 1 of 2): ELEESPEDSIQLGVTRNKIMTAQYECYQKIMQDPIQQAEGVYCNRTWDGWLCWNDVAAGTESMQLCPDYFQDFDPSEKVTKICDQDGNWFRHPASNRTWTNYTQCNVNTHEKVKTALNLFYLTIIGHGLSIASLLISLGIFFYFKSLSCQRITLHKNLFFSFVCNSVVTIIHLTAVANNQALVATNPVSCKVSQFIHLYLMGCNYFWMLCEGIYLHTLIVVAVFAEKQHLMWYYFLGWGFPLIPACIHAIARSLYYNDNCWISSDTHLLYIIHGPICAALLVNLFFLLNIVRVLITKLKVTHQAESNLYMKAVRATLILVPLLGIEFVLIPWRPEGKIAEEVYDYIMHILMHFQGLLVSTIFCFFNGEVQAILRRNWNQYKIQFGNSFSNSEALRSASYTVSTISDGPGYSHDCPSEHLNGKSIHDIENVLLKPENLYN
Chain of CGRP RBA (O60894 27-148, chain 2 of 2, further chain): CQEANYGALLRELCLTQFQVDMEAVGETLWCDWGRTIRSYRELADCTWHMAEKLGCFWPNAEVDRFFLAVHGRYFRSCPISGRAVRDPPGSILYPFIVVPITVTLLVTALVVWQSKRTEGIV
Chain of CGRP receptor (membranes prepared from SK-N-MC cells) (Q16602 23-461 limits assumed, chain 1 of 2): as the sequence (Q16602 23-461, chain 1 of 2) above
Chain of CGRP receptor (membranes prepared from SK-N-MC cells) (O60894 27-148 limits assumed, chain 2 of 2, further chain): as the sequence (O60894 27-148, chain 2 of 2, further chain) above
Chain of Amylin RBA (rat) (P32214 other isoform, or with tags, fused parts or gaps, chain 1 of 2): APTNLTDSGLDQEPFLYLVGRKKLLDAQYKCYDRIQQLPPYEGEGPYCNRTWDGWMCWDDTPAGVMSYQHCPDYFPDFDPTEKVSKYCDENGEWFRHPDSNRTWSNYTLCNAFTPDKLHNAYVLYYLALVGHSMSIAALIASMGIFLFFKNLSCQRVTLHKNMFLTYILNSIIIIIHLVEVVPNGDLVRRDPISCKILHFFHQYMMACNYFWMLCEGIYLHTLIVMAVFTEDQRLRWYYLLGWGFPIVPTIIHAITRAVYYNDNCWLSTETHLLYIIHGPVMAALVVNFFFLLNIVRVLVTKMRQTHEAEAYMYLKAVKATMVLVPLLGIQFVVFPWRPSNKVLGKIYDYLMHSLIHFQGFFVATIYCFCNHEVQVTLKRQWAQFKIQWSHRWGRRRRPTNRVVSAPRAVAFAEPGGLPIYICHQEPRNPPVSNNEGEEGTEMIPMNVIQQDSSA
Chain of Amylin RBA (rat) (Q9JJ74 27-148, chain 2 of 2, further chain): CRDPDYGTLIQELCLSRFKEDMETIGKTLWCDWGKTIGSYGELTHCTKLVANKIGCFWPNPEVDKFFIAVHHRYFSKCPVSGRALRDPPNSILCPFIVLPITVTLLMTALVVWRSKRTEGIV

Substance: AFP-6 (1-31)
- EC50 (Amylin RBA (rat)): > 100 nM

Substance: AFP-6 [1-31]
- EC50 (CGRP RBA): 277 nM

Substance: Human CGRP α (peptide)
- EC50, cAMP (AlphaScreen), CHO cells, Average [1]: 80.4 nM
- EC50, cAMP (AlphaScreen), CHO cells, Experiment 1 [1]: 70.3 nM
- EC50, cAMP (AlphaScreen), CHO cells, Experiment 2 [1]: 81.2 nM
- EC50, cAMP (AlphaScreen), CHO cells, Experiment 3 [1]: 89.7 nM
- EC50, cAMP (AlphaScreen), T47D cells, Average [2]: 35.5 nM
- EC50, cAMP (AlphaScreen), T47D cells, Experiment 1 [2]: 11.9 nM
- EC50, cAMP (AlphaScreen), T47D cells, Experiment 2 [2]: 66.7 nM
- EC50, cAMP (AlphaScreen), T47D cells, Experiment 3 [2]: 27.8 nM

Substance: r/h Amylin (from UniProt P12969 38-74) (peptide)
- IC50 [3]: 12 nM

Substance: r/h Calcitonin (peptide)
- IC50 [4]: 1.3 to 3.4 nM
